Measured values as given in publication PMC6317155, “Identification of Small Peptides that Inhibit NADPH Oxidase (Nox2) Activation” (Antioxidants, 2018).

T1: aiPLA2 activity of recombinant human Prdx6 (Homo sapiens, UniProt P30041)
T1 sequence (P30041 1-224): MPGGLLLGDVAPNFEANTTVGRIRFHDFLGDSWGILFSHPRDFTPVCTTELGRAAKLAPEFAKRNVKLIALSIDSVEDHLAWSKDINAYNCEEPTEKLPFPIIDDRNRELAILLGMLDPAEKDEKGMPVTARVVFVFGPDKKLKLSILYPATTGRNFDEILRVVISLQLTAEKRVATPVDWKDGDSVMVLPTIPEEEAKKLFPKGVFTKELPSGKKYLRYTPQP

T2: recombinant human peroxiredoxin 6 (Prdx6) (human) (UniProt P30041)
T2 sequence: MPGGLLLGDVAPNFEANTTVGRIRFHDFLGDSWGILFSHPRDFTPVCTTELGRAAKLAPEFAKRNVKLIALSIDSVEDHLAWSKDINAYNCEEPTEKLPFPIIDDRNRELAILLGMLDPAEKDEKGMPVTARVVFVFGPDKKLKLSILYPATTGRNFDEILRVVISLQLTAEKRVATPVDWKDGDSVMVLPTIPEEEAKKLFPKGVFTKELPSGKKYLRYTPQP

T3: mouse peroxiredoxin 6 (Prdx6), endogenous in lung homogenate (mouse (endogenous in lung)) (UniProt O08709)
T3 sequence: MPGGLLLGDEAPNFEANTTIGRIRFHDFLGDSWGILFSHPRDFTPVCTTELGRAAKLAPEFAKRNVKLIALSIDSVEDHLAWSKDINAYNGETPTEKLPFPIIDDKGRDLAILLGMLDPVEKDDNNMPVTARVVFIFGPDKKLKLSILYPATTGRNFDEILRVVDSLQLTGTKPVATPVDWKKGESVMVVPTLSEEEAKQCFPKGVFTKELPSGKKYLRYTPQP


Tests used:
[1] = biological target: T1, aiPLA2 activity of recombinant human Prdx6; test: aiPLA2 (PLA2) activity of recombinant human Prdx6 in vitro, 3H-DPPC liposome substrate; assay type: biochemical; conditions: for Concentration of peptide for inhibition of aiPLA2 activity by 50%: concentration corrected for purity of the PIP preparation, Figure 2, n = 3; for Activity (aiPLA2 of recombinant hPrdx6), deletion from N-term: peptides deleted from N-terminus of 16-aa rat-derived SP-A peptide, no-peptide control 94.8, 3H-DPPC liposomes, 60 min; for Activity (aiPLA2 of recombinant hPrdx6), deletion from N-term / Activity (aiPLA2 of recombinant hPrdx6), human-derived peptides: one assay done in duplicate; for Activity (aiPLA2 of recombinant hPrdx6), human-derived peptides: deletions from 16-aa human-derived SP-A peptide, no-peptide control 92.0
Description: The PLA2 activity of Prdx6 was measured as described previously. The substrate was dipalmitoylphosphatidylcholine (DPPC) with ^3H-9,10-palmitate in the sn-2 position of DPPC incorporated into lung surfactant-like liposomes as described above; substrate was incubated with enzyme for 60 min and activity was calculated from the liberation of ^3H-palmitate as measured by scintillation counting.
The effect of the PIP peptides on the aiPLA2 activity of human recombinant Prdx6 was determined by in vitro assay; the effective concentration of inhibitor was corrected for purity of the PIP preparation. Saturating concentrations of all three peptides (PIP-1, PIP-2, PIP-3) inhibited aiPLA2 activity by ~70% (Figure 2). The basis for the remaining 30% of activity that was not inhibited is unclear.

[2] = biological target: T2, recombinant human peroxiredoxin 6 (Prdx6) (human)
[3] = biological target: T2, recombinant human peroxiredoxin 6 (Prdx6) (human); remark: listed apart in the source
[4] = biological target: T2, recombinant human peroxiredoxin 6 (Prdx6) (human); remark: listed apart in the source
[5] = biological target: T2, recombinant human peroxiredoxin 6 (Prdx6) (human); remark: listed apart in the source
[6] = biological target: T3, mouse peroxiredoxin 6 (Prdx6), endogenous in lung homogenate (mouse (endogenous in lung))

Molecule	Activity (aiPLA2 of recombinant hPrdx6), deletion from N-term [1] [nmol/min/mg Prot.]	concentration of peptide for inhibition of aiPLA2 activity by 50% [3] [µg/mg Prdx6]	inhibition of the aiPLA2 activity of human recombinant Prdx6 in vitro against peptide concentration, up to saturating concentrations [3] [%]	molar stoichiometry of peptide to Prdx6 monomer worked out from the PIP to Prdx6 ratio at maximal inhibition of aiPLA2 activity (peptide to Prdx6 monomer, molar) [3]	also measured
LYDIRHQIL [PIP-3]					Inhibition of aiPLA2 activity of human recombinant Prdx6 [1]: ~ 70%; Concentration of peptide for inhibition of aiPLA2 activity by 50% ([1]; recombinant human Prdx6): ~ 10 µg/mg Prdx6
LYEIKHQIL [PIP-1]	32.3				Inhibition of aiPLA2 activity at saturating concentrations of peptide ([1]; recombinant human Prdx6, Figure 2, mean + SEM, n = 3): ~ 70%; Concentration of peptide for inhibition of aiPLA2 activity by 50% ([1]; recombinant human Prdx6): ~ 8.3 µg/mg Prdx6
QTELYEIKHQIL [12-aa N-terminal deletion of rat 16-aa peptide]	31.5				
TLHDFRHQI [9-aa human peptide with C-terminal aa deleted]					Activity (aiPLA2 of recombinant hPrdx6), human-derived peptides [1]: 89.6 nmol/min/mg Prot.
TLHDFRHQIL [10-aa N-terminal deletion of human 16-aa peptide]					Activity (aiPLA2 of recombinant hPrdx6), human-derived peptides [1]: 31.5 nmol/min/mg Prot.
YEIKHQIL [8-aa N-terminal deletion of rat 16-aa peptide]	94.4				

Continued, in another order:

Activity (aiPLA2 of recombinant hPrdx6), deletion from N-term [1] [nmol/min/mg Prot.]	concentration of peptide for inhibition of aiPLA2 activity by 50% [3] [µg/mg Prdx6]	inhibition of the aiPLA2 activity of human recombinant Prdx6 in vitro against peptide concentration, up to saturating concentrations [3] [%]	molar stoichiometry of peptide to Prdx6 monomer worked out from the PIP to Prdx6 ratio at maximal inhibition of aiPLA2 activity (peptide to Prdx6 monomer, molar) [3]	Molecule	also measured
	10	70	1.5	LYDIRHQIL [PLA2-inhibitory peptide 3 (PIP-3), hybrid of PIP-1 and PIP-2]	inhibition of aiPLA2 activity by the hybrid nine-aa peptide [2]: 70%
	8.3	70	1.5	LYEIKHQIL [PLA2-inhibitory peptide 1 (PIP-1), rat/mouse SP-A nine-aa peptide]	aiPLA2 activity of recombinant hPrdx6 with the peptide (no peptide: 94.8; scrambled peptide: 93.5) (nmol/min/mg Prot.) [4]: 32.3
	6.6	70	1.5	LHDFRHQIL [PLA2-inhibitory peptide 2 (PIP-2), human SP-A nine-aa peptide]	aiPLA2 activity of recombinant hPrdx6 with the peptide (no peptide: 92.0) (nmol/min/mg Prot.) [5]: 29.9; inhibition of PLA2 activity at pH 4 without Ca2+ (aiPLA2) of wild type mouse lung homogenate after addition of PIP-2 to the assay [6]: 91%
